Experiment [1] deals with T1, CEACAM6 on transfected HeLa cells (human, UniProt P40199 35-320).
T1 construct: whole, on cells; also called HeLa-CEACAM6; HeLa C6
T1 sequence (looked up): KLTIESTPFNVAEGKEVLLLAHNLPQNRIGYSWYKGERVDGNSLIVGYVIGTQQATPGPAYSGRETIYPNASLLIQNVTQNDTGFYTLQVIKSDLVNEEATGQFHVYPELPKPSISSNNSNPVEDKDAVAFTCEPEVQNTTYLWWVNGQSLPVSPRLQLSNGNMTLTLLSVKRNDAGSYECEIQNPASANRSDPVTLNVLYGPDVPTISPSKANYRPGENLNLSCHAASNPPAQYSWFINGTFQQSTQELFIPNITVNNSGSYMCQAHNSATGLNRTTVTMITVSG
The experiment is described as follows: flow cytometry, HeLa-CEACAM6 transfectants, % positive cells. The method, then:
Binding selectivity for CEACAM1 was tested for the 24 humanized antibody variants that bound to CEACAM1 (see Table 3), as well as the chimeric control antibody VH0/Vκ0, by flow cytometry on HeLa cells transfected with CEACAM1, 3, 5, 6 and 8. […] There was no evidence of any staining of the HeLa-CEACAM3 or HeLa-CEACAM8 transfectants. […] Due to its favorable affinity to and selectivity for CEACAM1 as well as its favorable expression level, VH1/Vκ8 was chosen as the framework for affinity maturation.
On the technique in general: In flow cytometry, cells or beads pass a laser one at a time.

The target of experiment [2] is T2, His-tagged CEACAM1 (human, UniProt P13688 35-428).
T2 construct: 45 kDa SPR analyte; also called CEACAM1-HIS; CEACAM1 analyte
T2 sequence: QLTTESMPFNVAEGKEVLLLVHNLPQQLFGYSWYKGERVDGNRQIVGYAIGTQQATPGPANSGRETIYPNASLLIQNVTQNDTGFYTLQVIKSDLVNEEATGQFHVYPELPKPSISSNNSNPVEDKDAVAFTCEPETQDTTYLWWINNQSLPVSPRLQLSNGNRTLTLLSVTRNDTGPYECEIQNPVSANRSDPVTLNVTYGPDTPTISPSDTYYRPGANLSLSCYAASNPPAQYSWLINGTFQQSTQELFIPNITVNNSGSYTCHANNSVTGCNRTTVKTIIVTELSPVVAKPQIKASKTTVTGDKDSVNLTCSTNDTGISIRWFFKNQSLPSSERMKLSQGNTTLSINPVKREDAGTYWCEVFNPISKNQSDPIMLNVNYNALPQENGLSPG
The experiment can be described thus: SPR multi-cycle, IgG captured. How it is done:
As an alternative approach to assess the binding of the 36 antibody combinations and the three control antibodies to CEACAM1, a kinetic analysis was performed on a Biacore T200 (serial no. 1909913) running Biacore T200 Evaluation Software V2.0.1 (Uppsala, Sweden). All experiments were run at 25° C. with HBS-P+ running buffer (pH 7.4) (GE Healthcare, cat. no. BR100671). All kinetic experiments were performed using His-tagged CEACAM1 as the analyte. For all experiments, antibodies were immobilized onto a Series S Protein A sensor chip surface. For kinetic experiments, the amount of immobilized/captured ligand was limited to avoid mass transfer effects at the surface of the chip with the surface ideally having an analyte binding level (Rₘₐₓ) of 50-150 RUs. Using a MW of 45 kDa for the CEACAM1 analyte, 150 kDa for the antibody ligand (estimated value for IgG), 50 RU for Rmax and the stoichiometry (Sm) as 2 due to the ability of each antibody to bind 2 target molecules, a target response level of ˜75 RUs was set for capture of all the sample antibodies.
The signal from the reference channel Fc1 was subtracted from that of Fc2, Fc3 and Fc4 to correct for differences in non-specific binding to a reference surface, a global Rmax parameter was used in the 1-to-1 binding model. The relative Kp compared to […] was calculated by dividing the Kp of the humanized CEACAM antibody variants by that of the chimeric antibody VH0/Vκ0 on the same chip. A summary of the averaged relative Kp obtained for the 12 antibody combinations analyzed using multi cycle kinetics can be found in Table 5.

Experiment [3] deals with T3, CEACAM8 on transfected HeLa cells (human, UniProt P31997 35-320).
T3 construct: whole, on cells; also called HeLa-CEACAM8; HeLa C8
T3 sequence (looked up): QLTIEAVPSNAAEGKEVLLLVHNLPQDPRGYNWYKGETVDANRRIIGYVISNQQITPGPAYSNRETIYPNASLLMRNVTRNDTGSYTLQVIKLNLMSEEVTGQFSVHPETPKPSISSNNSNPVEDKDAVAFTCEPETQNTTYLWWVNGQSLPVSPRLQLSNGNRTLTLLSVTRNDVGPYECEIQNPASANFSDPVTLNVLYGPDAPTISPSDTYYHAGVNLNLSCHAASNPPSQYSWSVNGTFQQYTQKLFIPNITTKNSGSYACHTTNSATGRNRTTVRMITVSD
The experiment can be described thus: flow cytometry, transfected HeLa. The method, boiled down:
(§1)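 Flow cytometry was done on HeLa cells stably expressing single CEACAM family members, cultured in DMEM with 10% fetal bovine serum at 37° C, 5.0% CO₂, and stained with the test antibody, then a fluorochrome-conjugated isotype-specific secondary antibody, with DAPI for viability. Staining of each transfectant serves as the readout of binding selectivity.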

The target of experiment [4] is T4, CEACAM3 on transfected HeLa cells (human, UniProt P40198 35-252).
T4 construct: whole, on cells; also called HeLa-CEACAM3; HeLa C3
T4 sequence (looked up): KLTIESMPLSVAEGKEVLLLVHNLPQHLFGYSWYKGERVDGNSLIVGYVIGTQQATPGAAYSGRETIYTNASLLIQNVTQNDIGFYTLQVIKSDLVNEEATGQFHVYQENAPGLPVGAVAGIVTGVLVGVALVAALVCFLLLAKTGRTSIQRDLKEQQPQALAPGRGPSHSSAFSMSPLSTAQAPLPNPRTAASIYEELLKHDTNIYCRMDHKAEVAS
The experiment is described as follows: flow cytometry, transfected HeLa. A digest of the protocol:
as §1

Experiment [5] concerns the target T2, His-tagged CEACAM1. The experiment can be described thus: SPR single-cycle, IgG captured. A digest of the protocol: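 Biacore T200 single-cycle kinetics at 25° C in HBS-P+ (pH 7.4): antibodies (purified or HEK EBNA supernatant, 1 μg/ml) captured on Protein A to ~75 RU, His-tagged CEACAM1 analyte at 3.125–50 nM (5-point 2-fold) at 50 μl/min without regeneration. Reference channel Fc1 subtracted.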

Values joined by “and” are separate entries in the source; they are usually repeats but may differ in a detail not shown here. Identical values can stand only once.

Consider six molecules from US20250074980A1 (BRIGHAM AND WOMEN S HOSPITAL, published 2025).

B1: VH1/Vκ7 (antibody, IgG4, V domains shown)
VH: EVQLLESGGGLVQPGGSLRLSCAASGFIFSSHGMSWVRQAPGKGLEWVATISSGGTYTYYPDSVKGRFTISRDNSKNTLYLQMNSLKAEDTAMYYCARHDFDYDAAWFAYWGQGTLVTVSS
VL: EIVLTQSPATLSLSPGERATLSCRANSSVSYMYWYQQKPGQAPRPWIYLTSNRATGVPARFSGSGSGTDFTLTISSLEPEDFATYYCQQWSSNPPTFGQGTKLEIK
notes: IgG4 (S241P), kappa
As usually defined, the Kd is the equilibrium constant for the complex coming apart. The koff is the first-order rate constant of dissociation. Broadly, the kon is a measure of how fast the partners come together. In the case of B1, the binding result in experiment [1] is given as “no binding”. In addition, in the experiment with His-tagged CEACAM1 [2], the Kd is 119 nM and 69 nM; the “average relative KD to VH0/Vκ0” value amounted to 2; the koff is 0.0492 s⁻¹ and 0.0352 s⁻¹; the kon was 415000 M⁻¹ s⁻¹ and 510000 M⁻¹ s⁻¹. In experiment [3], the binding result is “no binding”. In addition, in experiment [4], the binding result is listed as “no binding”. Also, in the experiment with His-tagged CEACAM1 [5], the Kd was 109 nM and the “relative KD to VH0/Vκ0” value stood at 2.6.

B2: VH1/Vκ12 (antibody, IgG4, V domains shown)
VH: EVQLLESGGGLVQPGGSLRLSCAASGFIFSSHGMSWVRQAPGKGLEWVATISSGGTYTYYPDSVKGRFTISRDNSKNTLYLQMNSLKAEDTAMYYCARHDFDYDAAWFAYWGQGTLVTVSS
VL: EIVLTQSPATLSLSPGERATLSCRANSSVSYMYWYQQKPGQAPRPLIYLTSNRATGIPARFSGSGSGTDYTLTISSLEPEDFATYYCQQWSSNPPTFGQGTKLEIK
notes: IgG4 (S241P), kappa
Consider B2, for which the binding result in experiment [1] is reported as “no binding”. In addition, in the experiment with His-tagged CEACAM1 [2], the Kd was 65 nM, the “average relative KD to VH0/Vκ0” value came to 2.2, the koff stood at 0.0268 s⁻¹ and the kon is 411000 M⁻¹ s⁻¹. In addition, the “relative KD to VH0/Vκ0” value with His-tagged CEACAM1 [2] came to 2.2. Further, in experiment [3], the binding result is “no binding”. In experiment [4], the binding result is listed as “no binding”. In the experiment with His-tagged CEACAM1 [5], the Kd is 143 nM and the “relative KD to VH0/Vκ0” value was 3.5.

B3: VH1/Vκ8 (antibody, IgG4, V domains shown)
VH: EVQLLESGGGLVQPGGSLRLSCAASGFIFSSHGMSWVRQAPGKGLEWVATISSGGTYTYYPDSVKGRFTISRDNSKNTLYLQMNSLKAEDTAMYYCARHDFDYDAAWFAYWGQGTLVTVSS
VL: EIVLTQSPATLSLSPGERATLSCRANSSVSYMYWYQQKPGQAPRPWIYLTSNRATGVPARFSGSGSGTDYTLTISSLEPEDFAVYYCQQWSSNPPTFGQGTKLEIK
notes: IgG4 (S241P), kappa
Regarding B3, the binding result in experiment [1] was “no binding”. Moreover, in the experiment with His-tagged CEACAM1 [2], the Kd turned out to be 95 nM, the “average relative KD to VH0/Vκ0” value amounted to 1.8, the koff was determined as 0.0406 s⁻¹ and the kon amounted to 430000 M⁻¹ s⁻¹. Besides, in the experiment with His-tagged CEACAM1 [2], the “relative KD to VH0/Vκ0” value was found to be 1.8. Further, the binding result in experiment [3] is reported as “no binding”. Further, the binding result in experiment [4] was “no binding”. For the same molecule, in the experiment with His-tagged CEACAM1 [5], the Kd is 131 nM and the “relative KD to VH0/Vκ0” value came out at 3.2.

B4: VH1/Vκ9 (antibody, IgG4, V domains shown)
VH: EVQLLESGGGLVQPGGSLRLSCAASGFIFSSHGMSWVRQAPGKGLEWVATISSGGTYTYYPDSVKGRFTISRDNSKNTLYLQMNSLKAEDTAMYYCARHDFDYDAAWFAYWGQGTLVTVSS
VL: EIVLTQSPATLSLSPGERATLSCRANSSVSYMYWYQQKPGQAPRPLIYLTSNRATGVPARFSGSGSGTDYTLTISSLEPEDFATYYCQQWSSNPPTFGQGTKLEIK
notes: IgG4 (S241P), kappa
As to B4, the binding result in experiment [1] was “no binding”. Moreover, in the experiment with His-tagged CEACAM1 [2], the Kd amounted to 220 nM, the “average relative KD to VH0/Vκ0” value was 4, the koff came out at 0.0504 s⁻¹ and the kon came to 229000 M⁻¹ s⁻¹. Moreover, the “relative KD to VH0/Vκ0” value in the experiment with His-tagged CEACAM1 [2] amounted to 4. For the same molecule, in experiment [3], the binding result is “no binding”. The binding result in experiment [4] is listed as “no binding”. In the experiment with His-tagged CEACAM1 [5], the Kd was 142 nM and the “relative KD to VH0/Vκ0” value turned out to be 3.4.

B5: VH2/Vκ7 (antibody, IgG4, V domains shown)
VH: EVQLLESGGGLVQPGGSLRLSCAASGFIFSSHGMSWVRQAPGKGLEWVATISSGGTYTYYPDSVKGRFTISRDNSKNTLYLQMNSLRAEDTAMYYCARHDFDYDAAWFAYWGQGTLVTVSS
VL: EIVLTQSPATLSLSPGERATLSCRANSSVSYMYWYQQKPGQAPRPWIYLTSNRATGVPARFSGSGSGTDFTLTISSLEPEDFATYYCQQWSSNPPTFGQGTKLEIK
notes: IgG4 (S241P), kappa
For B5, in experiment [1], the binding result is listed as “no binding”. Also, in the experiment with His-tagged CEACAM1 [2], the Kd was 71 nM, the “average relative KD to VH0/Vκ0” value is 2.3, the koff worked out at 0.0258 s⁻¹ and the on-rate (kon) came to 362000 M⁻¹ s⁻¹. Moreover, the “relative KD to VH0/Vκ0” value in the experiment with His-tagged CEACAM1 [2] was found to be 2.4. Further, the binding result in experiment [3] is given as “no binding”. In addition, in experiment [4], the binding result is recorded as “no binding”. For the same molecule, in the experiment with His-tagged CEACAM1 [5], the Kd was found to be 152 nM and the “relative KD to VH0/Vκ0” value amounted to 3.7.

B6: VH1/Vκ10 (antibody, IgG4, V domains shown)
VH: EVQLLESGGGLVQPGGSLRLSCAASGFIFSSHGMSWVRQAPGKGLEWVATISSGGTYTYYPDSVKGRFTISRDNSKNTLYLQMNSLKAEDTAMYYCARHDFDYDAAWFAYWGQGTLVTVSS
VL: EIVLTQSPATLSLSPGERATLSCRANSSVSYMYWYQQKPGQAPRPWIYLTSNRATGIPARFSGSGSGTDFTLTISSLEPEDFATYYCQQWSSNPPTFGQGTKLEIK
notes: IgG4 (S241P), kappa
Consider B6, for which, in experiment [1], the binding result was “no binding”. Moreover, in the experiment with His-tagged CEACAM1 [2], the Kd amounted to 180 nM, the “average relative KD to VH0/Vκ0” value was found to be 3.2, the koff turned out to be 0.0511 s⁻¹ and the kon came out at 284000 M⁻¹ s⁻¹. Besides, the “relative KD to VH0/Vκ0” value in the experiment with His-tagged CEACAM1 [2] is 3.2. Moreover, the binding result in experiment [3] is “no binding”. The binding result in experiment [4] is given as “no binding”. In the experiment with His-tagged CEACAM1 [5], the Kd stood at 146 nM and the “relative KD to VH0/Vκ0” value turned out to be 3.5.
